Reference: patent US20120073987A1, “ELECT[…] AND APPARATUS OF IDENTIFYING THE PRESENCE OF A TARGET” (priority 2009, published 2012)

Key:
[1] = molecular target: T1, HIV-1 reverse transcriptase (Human immunodeficiency virus type 1 group M subtype B, UniProt P04585); test: Cyclic voltammetry detection of HIV-1 RT binding on peptide-RT-modified Thc-Fc Au microelectrodes
T1 construct: HIV-1 reverse transcriptase (200 U, T3610Y, RT) was purchased from GE Healthcare; purchased GE Healthcare T3610Y
Protocol: (§1) Au microelectrodes were incubated in 1 mM ethanolic solution of Thc-Fc overnight (˜15 h). The electrodes were rinsed with ethanol and Millipore water (18.2 MΩ.cm). This layer was terminated by the amino-reactive carboxyl moieties that allowed the attachment of the peptides. The carboxyl groups were activated with 2 mM EDC and 5 mM NHS in 50 mM phosphate buffer solution (pH 7.4) for 2 h. The N-terminus of the peptides was attached to the activated carboxyl groups of Thc-Fc to give the final electrode interface. The peptides (1 mM) were incubated with the activated electrodes in 50 mM phosphate buffer solution (pH 7.4) for 2 h on a block-shaker at room temperature. Thus, the peptides were conjugated with the Fc compounds on the surface. The remaining active-esters were quenched by incubating the peptide-modified electrodes in 100 mM ethanolamine solution for 1 h on a block-shaker at room temperature. The peptide-modified electrodes were then incubated in 1 mM hexanethiol solution for 5 min to produce a diluted film and to back-fill the empty spots on the electrode surface. Finally, the electrodes were rinsed with ethanol and Millipore water to give the peptide-modified sensor surfaces. […]

HIV-1 integrase = molecular target: T2, HIV-1 integrase (Human immunodeficiency virus type 1 group M subtype B, UniProt P04585); test: Cyclic voltammetry detection of HIV-1 IN binding on peptide-IN-modified Thc-Fc Au microelectrodes
T2 construct: HIV integrase (100 μg, HIV-122, IN) was purchased from ProspecBio (USA); purchased ProspecBio HIV-122
Protocol: as §1

[2] = 100 nM protein solution, n=3 electrodes, FIG. 7

VEAIIRILQQLLFIH [peptide-RT, purchased peptide ligand for HIV-1 RT, immobilised on ferrocene-modified gold electrode]
electrochemical response to exposure to HIV-1 RT (selectivity) [1, 2]: responded to the exposure of HIV-1 RT | detection limit for HIV-1 RT ([1]; estimated from 3(Sb/m), CV at 100 mV s^-1 in 2 M NaClO4, 1 h incubation in RT assay buffer pH 7.2): 20 nM

YQLLIRMIYKNI [peptide-IN, purchased peptide ligand for HIV-1 IN, immobilised on ferrocene-modified gold electrode]
electrochemical response to exposure to HIV-1 IN (selectivity) (HIV-1 integrase; [2]): responded to the exposure of HIV-1 IN | detection limit for HIV-1 IN (HIV-1 integrase; CV at 100 mV s^-1 in 2 M NaClO4, IN assay buffer pH 7.5): 20 nM
